Measured values published in US20070184522A1, “Cell death modulation via antagonists of Fasl and Fas activation” (University of Pittsburgh of the Commonwealth System of …, priority 2004, published 2007).

Legend:
[1] = test system: endogenous Fas from Jurkat and Hepa 1-6 cells; experiment: Immunoprecipitation with anti-Fas antibody after adding AlphaMet proteins to Jurkat and Hepa 1-6 cells, Western blot with anti-His; assay type: binding; details: proteins added to Jurkat cells and Hepa 1-6 cells
Excerpt: The Met alpha but not beta chain binds to Fas (FIG. 1a). Various regions of the mouse Met cDNA corresponding to the alpha chain or the extra-cellular portion of the Met beta chain were cloned into expression vectors (pCRT7 TOPO/AlphaMet or pCRT7 TOPO/beta chain) and subjected to in vitro transcription/translation by a rabbit reticolucyte lysate translation system. Empty vector was included in each experiment as a control. The expressed proteins were labeled with ^35S-Methionine. Pull down assays were performed using Fas-Fc, a chimeric molecule which lacks the interacellular cytoplasmic domain and protein-A agarose as described in Wang et al., 2002. […] FIG. 1d depicts the amino acid sequence alignment of alpha chain with FasL, determined using the CLUSTALW, SIM+LALNVIEW, and ALIGN at ExPASy Proteomic Tools (available on the internet at us.expresly.org/tools). […] Recombinant His-tagged AlphaMet or its mutant version were expressed in E. coli, purified with chromatography, and subjected to Fas-Fc (lanes labeled Fas) or control IgG pull down experiments, and detected by Western blot using anti-His antibody that recognizes C-terminal His. […] After washing the wells, anti-human […]-HRP conjugates (1:20,000) were added to detect the bound Fas-Fc using TMD dye and the OD value was determined at a wavelength of 450 nm. […]

[2] = test system: Caspase 3 activation in Jurkat cells; experiment: Cleaved Caspase 3 Western blot in apoptotic Jurkat cells; assay type: cell-based, human; details: Fas-ligand
Description: For FIG. 4a, Jurkat cells (1.5×10^5) were overnight treated in triplicate with 5 ng/ml of crosslinked human Fas ligand with or without 5 μg/ml of recombinant AlphaMet or 1 μg/ml of the indicated polypeptides. Percent apoptosis was determined by Trypan Blue staining using a hemocytometer. The data are representative and were repeated at least four times. […] The 17 kDa fragment of cleaved Caspase 3 is visualized by this antibody. The blot was reprobed for β-actin as a loading control. For FIG. 4c, serum deprived Hepa 1-6 cells (3×10^5) were overnight treated with 1 μg/ml of crosslinked mouse Fas ligand with or without AlphaMet or the indicated polypeptide. Media were collected and centrifuged to pellet the dead cells. […] The data in FIG. 4c represents three independent experiments.
To provide biochemical evidence that AlphaMet inhibited FasL-mediated apoptosis, the activation of Caspase 3, a down stream executioner in Fas mediated apoptosis, was analyzed in apoptotic Jurkat cells.

B1: alpha subunit of Met (AlphaMet), amino acid residues 1 to 306, His-tagged (receptor, mouse)
chain: MKAPTVLAPGILVLLLSLVQRSHGECKEALVKSEMNVNMKYQLPNFTAETPIQNVVLHGHHIYLGATNYIYVLNDKDLQKVSEFKTGPVLEHPDCLPCRDCSSKANSSGGVWKDNINMALLVDTYYDDQLISCGSVNRGTCQRHVLPPDNSADIQSEVHCMFSPEEESGQCPDCVVSALGAKVLLSEKDRFINFFVGNTINSSYPPGYSLHSISVRRLKETQDGFKFLTDQSYIDVLPEFLDSYPIKYIHAFESNHFIYFLTVQKETLDAQTFHTRIIRFCSVDSGLHSYMEMPLECILTEKRRKRHHHHHH
**Q.** Which results are given for B1?
**A.** co-precipitation with anti-Fas [1]: could be co-precipitated with anti-Fas; Caspase 3 activation (17 kDa cleaved form) [2]: markedly reduced
